Results published in patent US20190085075A1 (published 2019).

Assays:
[1] = target: T1, soluble cynomolgus monkey LAG-3 fusion protein (extracellular domain of cynomolgus monkey LAG-3 fused to … (cynomolgus monkey; murine); assay: Biacore; cynomolgus LAG-3 ECD-murine IgG2a captured on Fab2 goat-anti-mouse Fc, antibody injected
T1 construct: extracellular domain; also called cynomolgus LAG-3-murine IgG2a fusion protein

[2] = target: T2, soluble human LAG-3 fusion protein (extracellular domain of human LAG-3 fused to murine IgG2a) (human; murine, UniProt P18627 23-450); assay: Biacore; human LAG-3 ECD-murine IgG2a captured on Fab2 goat-anti-mouse Fc, antibody injected
T2 construct: also called human LAG-3-murine IgG2a fusion protein; not shown: murine IgG2a
T2 sequence: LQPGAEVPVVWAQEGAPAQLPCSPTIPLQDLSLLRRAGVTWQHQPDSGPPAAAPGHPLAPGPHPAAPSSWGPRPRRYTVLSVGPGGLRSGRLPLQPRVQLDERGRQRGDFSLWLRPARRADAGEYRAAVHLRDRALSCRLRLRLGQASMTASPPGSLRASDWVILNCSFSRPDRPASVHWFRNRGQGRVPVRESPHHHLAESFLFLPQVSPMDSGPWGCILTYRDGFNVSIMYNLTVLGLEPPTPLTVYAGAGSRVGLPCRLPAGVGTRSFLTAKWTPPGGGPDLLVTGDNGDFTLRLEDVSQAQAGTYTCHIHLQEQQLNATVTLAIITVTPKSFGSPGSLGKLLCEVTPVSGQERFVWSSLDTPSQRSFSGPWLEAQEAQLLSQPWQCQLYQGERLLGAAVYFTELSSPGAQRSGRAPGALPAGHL

[3] = target: T3, His-tagged soluble human LAG-3 (shLAG-3-His) (human, UniProt P18627 23-450); assay: Biacore; antibody captured (capture surface not marked for this row), shLAG-3-His injected
T3 construct: also called soluble human LAG-3-His fusion protein; extracellular domain of human LAG-3 fused to a His tag; not shown: His tag
T3 sequence: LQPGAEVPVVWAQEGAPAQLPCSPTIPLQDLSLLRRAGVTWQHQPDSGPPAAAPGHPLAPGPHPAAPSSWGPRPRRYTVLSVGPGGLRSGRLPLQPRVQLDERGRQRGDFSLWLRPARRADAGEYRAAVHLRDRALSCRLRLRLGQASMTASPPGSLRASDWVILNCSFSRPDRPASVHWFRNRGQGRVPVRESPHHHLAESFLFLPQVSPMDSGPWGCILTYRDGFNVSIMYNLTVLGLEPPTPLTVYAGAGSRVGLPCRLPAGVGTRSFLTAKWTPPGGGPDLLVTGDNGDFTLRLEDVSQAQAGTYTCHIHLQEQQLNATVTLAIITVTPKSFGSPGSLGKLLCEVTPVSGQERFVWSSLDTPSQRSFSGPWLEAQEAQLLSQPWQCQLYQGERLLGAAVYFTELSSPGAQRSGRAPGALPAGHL

B1: LAG-3 mAb A (25F7, BMS-986016, Medarex/BMS) (antibody, V domains shown)
VH: QVQLQQWGAGLLKPSETLSLTCAVYGGSFSDYYWNWIRQPPGKGLEWIGEINHNGNTNSNPSLKSRVTLSLDTSKNQFSLKLRSVTAADTAVYYCAFGYSDYEYNWFDPWGQGTLVTVSS
VL: EIVLTQSPATLSLSPGERATLSCRASQSISSYLAWYQQKPGQAPRLLIYDASNRATGIPARFSGSGSGTDFTLTISSLEPEDFAVYYCQQRSNWPLTFGQGTNLEIK
notes: also called LAG-2 mAb A
B1 was tested, and the Kd [1] was 458 nM, the Kd [2] was 0.16 nM and the Kd [3] was 0.6 nM.
